Experimental data: US20260159601A1 (Hoffmann-La Roche, published 2026)

How the values were obtained:
[1] = target: T1, human CD20 (human, UniProt P11836 1-297); assay: flow cytometry on a human B-cell lymphoma cell line, 30 min at 4 C, detection with FITC-labeled F(ab)'2 goat anti-human Fc-gamma-specific antibody, median fluorescence intensity
T1 construct: On a human B-cell lymphoma cell line, human tonsil-derived B-cells and human PBMC B-cells; also called huCD20; MS4A1
T1 sequence: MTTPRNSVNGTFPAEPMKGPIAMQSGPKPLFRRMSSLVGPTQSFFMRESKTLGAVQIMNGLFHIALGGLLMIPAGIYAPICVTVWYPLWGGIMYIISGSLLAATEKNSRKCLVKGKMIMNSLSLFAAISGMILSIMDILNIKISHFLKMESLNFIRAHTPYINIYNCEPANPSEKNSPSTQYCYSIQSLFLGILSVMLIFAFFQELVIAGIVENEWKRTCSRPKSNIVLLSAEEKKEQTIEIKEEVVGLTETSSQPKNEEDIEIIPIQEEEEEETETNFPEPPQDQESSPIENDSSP

[2] = target: human transferrin receptor 1 on MDCKII cells transfected with huTfR1 (human, UniProt P02786 1-760); assay: cell-based or functional assay
Sequence of human transferrin receptor 1 on MDCKII cells transfected with huTfR1 (P02786 whole entry): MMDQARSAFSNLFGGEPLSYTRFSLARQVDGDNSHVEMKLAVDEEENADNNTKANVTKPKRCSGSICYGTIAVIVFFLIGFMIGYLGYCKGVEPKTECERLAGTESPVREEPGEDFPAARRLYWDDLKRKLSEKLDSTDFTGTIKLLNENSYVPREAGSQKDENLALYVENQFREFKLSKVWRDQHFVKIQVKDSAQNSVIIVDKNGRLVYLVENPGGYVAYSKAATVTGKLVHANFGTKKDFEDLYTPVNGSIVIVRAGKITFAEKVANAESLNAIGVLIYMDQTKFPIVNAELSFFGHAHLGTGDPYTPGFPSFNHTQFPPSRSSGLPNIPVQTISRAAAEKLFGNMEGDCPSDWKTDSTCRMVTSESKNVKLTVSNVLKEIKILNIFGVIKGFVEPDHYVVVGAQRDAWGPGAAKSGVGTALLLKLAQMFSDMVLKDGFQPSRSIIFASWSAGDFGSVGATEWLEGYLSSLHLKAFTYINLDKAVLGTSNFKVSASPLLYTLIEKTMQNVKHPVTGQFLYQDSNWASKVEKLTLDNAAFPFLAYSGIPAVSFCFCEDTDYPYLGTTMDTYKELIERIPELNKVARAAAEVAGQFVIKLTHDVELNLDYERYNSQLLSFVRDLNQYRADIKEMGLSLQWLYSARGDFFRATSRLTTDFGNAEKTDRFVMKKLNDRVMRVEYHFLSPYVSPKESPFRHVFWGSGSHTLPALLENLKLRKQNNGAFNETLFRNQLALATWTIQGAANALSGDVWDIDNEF

[3] = target: T1, human CD20; assay: cell-based or functional assay
[4] = target: T2, cynomolgus monkey transferrin receptor 1 (cynomolgus monkey, UniProt H9EXL1 89-760 (rhesus entry)); assay: surface plasmon resonance at 37° C.; cynomolgus TfR1; SPR at 37° C.
T2 construct: also called cyTfR1
T2 sequence (chain, as listed by the source): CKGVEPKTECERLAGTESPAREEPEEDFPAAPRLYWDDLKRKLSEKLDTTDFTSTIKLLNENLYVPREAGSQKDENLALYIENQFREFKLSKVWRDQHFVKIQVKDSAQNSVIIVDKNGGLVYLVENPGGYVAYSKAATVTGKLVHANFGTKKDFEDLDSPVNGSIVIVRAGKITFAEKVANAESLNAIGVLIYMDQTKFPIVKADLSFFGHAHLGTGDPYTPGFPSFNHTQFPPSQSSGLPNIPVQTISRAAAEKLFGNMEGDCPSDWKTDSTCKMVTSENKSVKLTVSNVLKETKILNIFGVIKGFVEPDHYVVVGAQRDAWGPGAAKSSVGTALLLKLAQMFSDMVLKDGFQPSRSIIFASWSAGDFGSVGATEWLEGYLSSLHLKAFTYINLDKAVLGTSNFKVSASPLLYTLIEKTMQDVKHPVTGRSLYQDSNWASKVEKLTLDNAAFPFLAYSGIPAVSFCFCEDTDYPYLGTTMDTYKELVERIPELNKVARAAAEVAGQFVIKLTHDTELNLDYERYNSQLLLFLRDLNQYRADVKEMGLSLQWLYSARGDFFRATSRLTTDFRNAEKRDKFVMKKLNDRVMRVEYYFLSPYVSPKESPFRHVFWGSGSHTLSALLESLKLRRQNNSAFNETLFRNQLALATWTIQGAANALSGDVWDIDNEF

[5] = target: CD20 (species not stated, in-vitro-measured KD used in the cynomolgus monkey PK model); assay: in vitro measurement, method not stated; value used in the PK model

EC50 (read off the curve) [1]: ~3000 pM
intracellular uptake in MDCKII-huTfR cells against non-transfected MDCKII-parental cells, 30-minute pulse, IgG ELISA [2]: 30 fold
EC50 of CD19+-B-cell depletion, ex vivo human tonsil-derived cells, average of three donors [3]: 400 pM
EC50 of CD19+-B-cell depletion, ex vivo human tonsil-derived cells, donor T1 [3]: 440 pM
EC50 of CD19+-B-cell depletion, ex vivo human tonsil-derived cells, donor T2 [3]: 200 pM
EC50 of CD19+-B-cell depletion, ex vivo human tonsil-derived cells, donor T3 [3]: 550 pM
Kd [4]: 694000 pM
Kd [5]: 3300 pM
B1: RG6035 (bispecific antibody, human IgG1, kappa, L234A L235A)
light 1: DIVMTQTPLSLPVTPGEPASISCRSSKSLLHSNGITYLYWYLQKPGQSPQLLIYQMSNLVSGVPDRFSGSGSGTDFTLKISRVEAEDVGVYYCAQNLELPYTFGGGTKVEIKRTVAAPSVFIFPPSDRKLKSGTASVVCLLNNFYPREAKVQWKVDNALQSGNSQESVTEQDSKDSTYSLSSTLTLSKADYEKHKVYACEVTHQGLSSPVTKSFNRGEC
heavy 1: VQLVQSGAEVKKPGSSVKVSCKASGYAFSYSWINWVRQAPGQGLEWMGRIFPGDGDTDYNGKFKGRVTITADKSTSTAYMELSSLRSEDTAVYYCARNVFDGYWLVYWGQGTLVTVSSASTKGPSVFPLAPSSKSTSGGTAALGCLVEDYFPEPVTVSWNSGALTSGVHTFPAVLQSSGLYSLSSVVTVPSSSLGTQTYICNVNHKPSNTKVDEKVEPKSCDKTHTCPPCPAPEAAGGPSVFLFPPKPKDTLMISRTPEVTCVVVDVSHEDPEVKFNWYVDGVEVHNAKTKPREEQYNSTYRVVSVLTVLHQDWLNGKEYKCKVSNKALGAPIEKTISKAKGQPREPQVCTLPPSRDELTKNQVSLSCAVKGFYPSDIAVEWESNGQPENNYKTTPPVLDSDGSFFLVSKLTVDKSRWQQGNVFSCSVMHEALHNHYTQKSLSLSPG
light 2: AIQLTQSPSSLSASVGDRVTITCRASQSISSYLAWYQQKPGKAPKLLIYRASTLASGVPSRFSGSGSGTDFTLTISSLQPEDFATYYCQQNYASSNVDNTFGGGTKVEIKSSASTKGPSVFPLAPSSKSTSGGTAALGCLVKDYFPEPVTVSWNSGALTSGVHTFPAVLQSSGLYSLSSVVTVPSSSLGTQTYICNVNHKPSNTKVDKKVEPKSC
heavy 2: not shown
notes: human IgG1 Fc with L234A, L235A, P329G; also called RO7121932; BS-CD20
